The results in this text go back to US20240059771A1 (SHANGHAI JUNSHI BIOSCIENCES, published 2024).

Experiment [1] concerns the target T1, human CLDN-18.2 (human, UniProt P56856-2 1-261). Briefly: cell-based or functional assay.
The target of experiment [2] is T1, human CLDN-18.2. The experiment can be described thus: flow cytometry (FACS) on NUGC4-CLDN-18.2 cells, fluorescent secondary antibody, MFI. The source says: Fluorescent signal was detected by FACS; the stronger the detected fluorescent signal, the higher the antibody affinity, that is, the higher the target binding activity. Antibody binding curves were fitted by GraphPad (FIGS. 4a, 4b and 4c), and the positive and negative controls were IMAB362 and anti-KLH hu-IgG1 antibody, respectively.
(Flow cytometry measures light scatter and fluorescence of single cells or particles in a stream.)

Experiment [3] concerns the target T1, human CLDN-18.2. The experiment can be described thus: flow cytometry on NUGC4-CLDN-18.2 cells, 4 C 30 min, fluorescent secondary antibody. The procedure:
Finally, the fluorescence intensity was detected by BD CantoII flow cytometer. The stronger the fluorescent signal, the higher the affinity of the antibody to the target. The antibody dose-dependent binding curve was fitted by GraphPad (FIG. 1) and EC₅₀ was calculated (Table 3). The positive and negative controls were IMAB362 and anti-KLH hu-IgG1 antibody, respectively.

B1: humanized anti-CLDN-18.2 antibody JS012-Chi27-hu3-v2 (antibody, human IgG1, V domains shown)
VH: EVQLVESGGGLVKPGGSLRLSCAASGFTFSSYGMSWVRQAPGKGLEWVSTISGGDSYTYYPDSVRGRFTISRDNAKNSLYLQMNSLRAEDTAVYYCARSYNGNSLPYWGQGTLVTVSS
VL: DIVMTQSPDSLAVSLGERATINCKSSQSLLNSGNQRNYLTWYQQKPGQPPKLLIYWASTRESGVPDRFSGSGSGTDFTLTISSLQAEDVAVYYCQNNYFYPFTFGQGTKLEIK
As usually defined, the EC50 (read off the curve) is the concentration needed to bring the measured effect to its halfway point. Read a high EC50 (read off the curve) as weaker potency. Turning to B1, in the experiment with human CLDN-18.2 [1], the “EC50 of ADCC effect (Jurkat ADCC NFAT luciferase reporter cells)” value worked out at 35.8 ng/mL and the “EC50 of CDC effect (complement serum, PI staining, relative killing rate)” value stood at 169 ng/mL. Further, in the experiment with human CLDN-18.2 [2], the “EC50 (read off the curve)” value is approximately 1 µg/mL.

B2: humanized anti-CLDN-18.2 antibody JS012-Chi27-hu6-v3-2 (antibody, human IgG1, V domains shown)
VH: EVQLVESGGGLVKPGGSLRLSCAASGFTFSSYGMSWVRQAPGKGLESVSTISGGDSYTYYPDSVRGRFTISRDIAKNSLYLQMNSLRAEDTAVYYCARSYNGNSLPYWGQGTLVTVSS
VL: DIVMTQSPDSLAVSLGERATINCKSSQSLLNSGNQRNYLTWYQQKPGQPPKLLIYWASTRESGVPDRFSGSGSGTDFTLTISSLQAEDVAVYYCQNNYFYPFTFGQGTKLEIK
Take B2: in the experiment with human CLDN-18.2 [1], the “EC50 of ADCC effect (Jurkat ADCC NFAT luciferase reporter cells)” value was 74.2 ng/mL and the “EC50 of CDC effect (complement serum, PI staining, relative killing rate)” value came out at 715 ng/mL. Further, the “EC50 (read off the curve)” value with human CLDN-18.2 [2] is approximately 5 µg/mL.

B3: humanized anti-CLDN-18.2 antibody JS012-Chi9-hu7-v2 (antibody, human IgG1, kappa, V domains shown)
VH: QVQLVQSGSELKKPGESVKVSCKASGYTFTNYGMNWVRQAPGQGLEWMGWINTYTGESTYADGFTGRFVFSMDTSASTAYLQISSLKAEDMAMYFCATLGYGNSLAYWGQGTLVTVSS
VL: DIVMTQSPDSLAVSLGERATINCKSSQSLLNSGNQRNYLTWYQQKPGQPPKLLIYWASTRESGVPDRFSGSGSGTDFTLTISSLQAEDVAVYYCQNNYFYPFTFGQGTKLEIKR
Consider B3, for which, in the experiment with human CLDN-18.2 [1], the “EC50 of ADCC effect (Jurkat ADCC NFAT luciferase reporter cells)” value worked out at 22.5 ng/mL and the “EC50 of CDC effect (complement serum, PI staining, relative killing rate)” value is 134 ng/mL. For the same molecule, the “EC50 (read off the curve)” value with human CLDN-18.2 [2] is approximately 1 µg/mL.

B4: humanized anti-CLDN-18.2 antibody JS012-Chi2-hu2-v3-2 (antibody, human IgG1, kappa, V domains shown)
VH: EVQLVESGGGLVQPGGSLRLSCAASGFTLNNFGMHWVRQAPGKGLEWVSSISSGSGTIYYADSVKGRFTISRDNPKNSLYLQMNSLRAEDTAVYYCARAYYGNGFSFWGQGTLVTVSS
VL: DIVMTQSPDSLAVSLGERATINCKSSQSLLNSGNQKNYLTWYQQKPGQPPKLLIYWASTRESGVPDRFSGSGSGTDFTLTISSLQAEDVAVYYCQNVYSYPLTFGQGTKLEIKR
Usually EC50 stands for the concentration needed to bring the measured effect to its halfway point. The low end stands for greater potency, the high end for weaker potency. Regarding B4, in the experiment with human CLDN-18.2 [1], the “EC50 of ADCC effect (Jurkat ADCC NFAT luciferase reporter cells)” value amounted to 14.2 ng/mL and the “EC50 of CDC effect (complement serum, PI staining, relative killing rate)” value came out at 166 ng/mL. In the experiment with human CLDN-18.2 [2], this molecule came in with an EC50 of 1.65 µg/mL.

B5: humanized anti-CLDN-18.2 antibody JS012-Chi9-hu7 (antibody, human IgG1, kappa, V domains shown)
VH: QIQLVQSGSELKKPGESVKVSCKASGYTFTNYGMNWVRQAPGQGLEWMGWINTYTGESTYADGFTGRFVFSSDTSARTAYLQISSLKAEDTAVYFCATLGYGNSLAYWGQGTLVTVSS
VL: DIVMTQSPDSLAVSLGERATINCKSSQSLLNSGNQRNYLTWYQQKPGQPPKLLIYWASTRESGVPDRFSGSGSGTDFTLTISSLQAEDVAVYYCQNNYFYPFTFGQGTKLEIKR
As for B5, in the experiment with human CLDN-18.2 [1], the “EC50 of ADCC effect (Jurkat ADCC NFAT luciferase reporter cells)” value was found to be 23.6 ng/mL and the “EC50 of CDC effect (complement serum, PI staining, relative killing rate)” value came to 86 ng/mL. Besides, in the experiment with human CLDN-18.2 [2], the “EC50 (read off the curve)” value is approximately 1 µg/mL.

B6: IMAB362 (antibody, V domains shown)
VH: QVQLQQPGAELVRPGASVKLSCKASGYTFTSYWINWVKQRPGQGLEWIGNIYPSDSYTNYNQKFKDKATLTVDKSSSTAYMQLSSPTSEDSAVYYCTRSWRGNSFDYWGQGTTLTVSS
VL: DIVMTQSPSSLTVTAGEKVTMSCKSSQSLLNSGNQKNYLTWYQQKPGQPPKLLIYWASTRESGVPDRFTGSGSGTDFTLTISSVQAEDLAVYYCQNDYSYPFTFGSGTKLEIKR
As to B6, in the experiment with human CLDN-18.2 [1], the “EC50 of ADCC effect (Jurkat NFAT-Luc/FcγRIIIaR reporter cells), FIG. 2a” value came to 36 ng/mL; the “EC50 of ADCC effect (Jurkat NFAT-Luc/FcγRIIIaR reporter cells), FIG. 2b” value came to 34.4 ng/mL; the “EC50 of CDC effect (complement serum, PI staining, flow cytometry)” value was 354 ng/mL. In the experiment with human CLDN-18.2 [2], the midpoint of the response, the EC50, lay at 1.39 µg/mL and the “EC50 (read off the curve)” value was approximately 2 µg/mL.

B7: anti-CLDN-18.2 chimeric antibody Chi-JS012-2 (antibody, V domains shown)
VH: DVQLVESGGGLVQPGGSRKLSCAASGFTLNNFGMHWVRQAPEKGLEWVACISSGSGTIYYADTVKGRFTISRDNPKNTLFLQMTSLRSEDTAMYYCARAYYGNGFSFWGQGTLVTVSS
VL: DIVMTQSPSSLTVTAGEKVTMSCKSSQSLLNSGNQKNYLTWYQQKPGQPPKLLIYWASTRESGVPDRFTGSGSGTDFTLTISSVQAEDLAIYYCQNVYSYPLTFGAGTKLEIK
notes: Fused to a human heavy chain constant region and a human kappa constant region cloned from human blood cells
B7: in the experiment with human CLDN-18.2 [1], the “EC50 of ADCC effect (Jurkat NFAT-Luc/FcγRIIIaR reporter cells)” value stood at 56.1 ng/mL and the “EC50 of CDC effect (complement serum, PI staining, flow cytometry)” value was 461 ng/mL. This molecule also registered an EC50 with human CLDN-18.2 [3] of 4.02 µg/mL.

B8: anti-CLDN-18.2 chimeric antibody Chi-JS012-9 (antibody, V domains shown)
VH: QIQLVQSGPELKKPGETVKISCKASGYTFTNYGMNWVKQAPGKGLKWMGWINTYTGESTYADDFKGRFAFSSETSARTAYLQINNLKNEDMATYFCATLGYGNSLAYWGQGTLVTVSS
VL: DIVMTQYPSFLTVTTGEKVTMSCKSSQSLLNSGNQRNYLTWYQQKPGQPPKLLIYWASTRESGVPDRFAGSGSGTDFTLTISSVQAEDLAIYYCQNNYFYPFTFGSGTKLEVK
notes: Human heavy chain constant region and human kappa constant region
For B8, in the experiment with human CLDN-18.2 [1], the “EC50 of ADCC effect (Jurkat NFAT-Luc/FcγRIIIaR reporter cells)” value worked out at 43.6 ng/mL and the “EC50 of CDC effect (complement serum, PI staining, flow cytometry)” value is 316 ng/mL. Besides, in the experiment with human CLDN-18.2 [3], it took 3.22 µg/mL to reach a half-maximal effect (EC50).

B9: anti-CLDN-18.2 chimeric antibody Chi-JS012-27 (antibody, V domains shown)
VH: EVKLVESGGGLVKPGGSLKLSCAASGFTFSSYGMSWVRQTPEKRLECVATISGGDSYTYYPDSVRGRFTISRDIAKNNLYLQMSSLRSEDTALYYCARSYNGNSLPYWGQGTLVTVSS
VL: DIVMTQYPSFLTVTTGEKVTMSCKSSQSLLNSGNQRNYLTWYQQKPGQPPKLLIYWASTRESGVPDRFAGSGSGTDFTLTISSVQAEDLAIYYCQNNYFYPFTFGSGTKLEVK
notes: as for B8
Regarding B9, in the experiment with human CLDN-18.2 [1], the “EC50 of ADCC effect (Jurkat NFAT-Luc/FcγRIIIaR reporter cells)” value is 43.2 ng/mL and the “EC50 of CDC effect (complement serum, PI staining, flow cytometry)” value was 264 ng/mL. Besides, a half-maximal response with human CLDN-18.2 [3] (EC50) required 2.92 µg/mL.

B10: anti-CLDN-18.2 chimeric antibody Chi-JS012-21 (antibody, V domains shown)
VH: QIQLVQSGPELKKPGETVKISCKASGYTFTNYGMNWVKQAPGKGLKWMGWINTYTGESTYADDFKGRFAFSSETSARTAYLQINNLKNEGMATYFCARSYNGNSLPYWGQGTLVTVSS
VL: DIVMTQYPSFLTVTTGEKVTMSCKSSQSLLNSGNQRNYLTWYQQKPGQPPKLLIYWASTRESGVPDRFAGSGSGTDFTLTISSVQAEDLAIYYCQNNYFYPFTFGSGTKLEVK
notes: as for B8
In the case of B10, the “EC50 of ADCC effect (Jurkat NFAT-Luc/FcγRIIIaR reporter cells)” value in the experiment with human CLDN-18.2 [1] is 63.1 ng/mL. This molecule also registered a concentration for a half-maximal effect (EC50) with human CLDN-18.2 [3] of 2.37 µg/mL.

B11: anti-CLDN-18.2 chimeric antibody Chi-JS012-10 (antibody, V domains shown)
VH: QIQLVQSGPELKKPGETVKISCKASGYTFTNYGMNWVKQAPGKGLKWMGWINTYTGESTYADDFKGRFAFSSETSARTAYLQINNLKNEDMATYFCATLGYGNSLAYWGQGTLVTVSS
VL: DIVMTQSPSFLTVTAGEKVTMSCKSSQSLLNSGNQKNYLTWYQQKPGQPPKLLIYWASTRDSGVPDRFTGSGSGTDFTLTITSVQAEDLAVFYCQNAYFYPFTFGSGTKLEIK
notes: as for B8
For the molecule B11, in the experiment with human CLDN-18.2 [1], the “EC50 of ADCC effect (Jurkat NFAT-Luc/FcγRIIIaR reporter cells)” value stood at 49.5 ng/mL and the “EC50 of CDC effect (complement serum, PI staining, flow cytometry)” value is 358 ng/mL. In the experiment with human CLDN-18.2 [3], this molecule showed an EC50 of 3.19 µg/mL.
